Test results taken from US20250186597A1 (BRIGHT PEAK THERAPEUTICS, published 2025).
Numbering of substitutions follows the chain as printed. Numbers in names are those of the source. Where “and” joins values, the source holds several entries; their conditions need not be identical. Identical values can stand only once.

T1: IL-18R on HEK-Blue IL18R reporter cells (InvivoGen, #hkb-hmi118) (UniProt Q13478 19-541; O95256 20-599, limits assumed)
T1 sequence (looked up) 1: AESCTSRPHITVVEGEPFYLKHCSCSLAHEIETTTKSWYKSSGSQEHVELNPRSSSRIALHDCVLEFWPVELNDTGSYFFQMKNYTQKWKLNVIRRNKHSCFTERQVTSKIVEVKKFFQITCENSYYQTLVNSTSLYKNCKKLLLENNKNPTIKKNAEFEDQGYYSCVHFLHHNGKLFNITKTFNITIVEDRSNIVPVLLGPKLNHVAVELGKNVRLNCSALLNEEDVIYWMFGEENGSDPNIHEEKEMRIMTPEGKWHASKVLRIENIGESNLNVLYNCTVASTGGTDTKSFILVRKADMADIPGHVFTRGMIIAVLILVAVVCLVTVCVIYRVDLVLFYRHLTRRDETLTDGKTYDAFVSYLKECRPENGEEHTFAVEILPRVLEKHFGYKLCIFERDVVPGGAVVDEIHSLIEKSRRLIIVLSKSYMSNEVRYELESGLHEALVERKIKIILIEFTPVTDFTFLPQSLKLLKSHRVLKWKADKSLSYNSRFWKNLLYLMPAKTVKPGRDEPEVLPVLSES
T1 sequence (looked up) 2: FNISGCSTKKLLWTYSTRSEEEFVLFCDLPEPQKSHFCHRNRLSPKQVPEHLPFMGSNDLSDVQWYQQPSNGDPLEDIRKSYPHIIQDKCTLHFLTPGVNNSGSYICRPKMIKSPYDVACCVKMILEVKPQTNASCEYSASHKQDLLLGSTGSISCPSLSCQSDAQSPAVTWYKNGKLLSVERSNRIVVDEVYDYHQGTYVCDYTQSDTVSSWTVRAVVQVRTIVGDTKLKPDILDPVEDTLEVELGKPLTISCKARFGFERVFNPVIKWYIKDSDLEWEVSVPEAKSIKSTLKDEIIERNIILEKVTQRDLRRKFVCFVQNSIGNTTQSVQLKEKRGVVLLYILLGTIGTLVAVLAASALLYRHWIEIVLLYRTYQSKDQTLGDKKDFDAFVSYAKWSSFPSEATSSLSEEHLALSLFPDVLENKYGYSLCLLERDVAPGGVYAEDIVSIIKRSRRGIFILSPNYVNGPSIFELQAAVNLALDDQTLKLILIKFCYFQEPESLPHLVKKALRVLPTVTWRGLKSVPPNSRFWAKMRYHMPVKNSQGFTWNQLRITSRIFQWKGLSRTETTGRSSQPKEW

B1: IL-18 polypeptide C140 (SEQ ID NO: 72; N-terminal 4xG, E6K, V11I, C38A, K53A, T63A, C76A, C127A) (ligand)
chain: GGGGYFGKLKSKLSIIRNLNDQVLFIDQGNRPLFEDMTDSDARDNAPRTIFIISMYADSQPRGMAVAISVKCEKISTLSAENKIISFKEMNPPDNIKDTKSDIIFFQRSVPGHDNKMQFESSSYEGYFLAAEKERDLFKLILKKEDELGDRSIMFTVQNED
B2: IL-18 polypeptide C141 (SEQ ID NO: 71; N-terminal G, E6K, V11I, C38A, K53A, T63A, C76A, C127A) (ligand)
chain: GYFGKLKSKLSIIRNLNDQVLFIDQGNRPLFEDMTDSDARDNAPRTIFIISMYADSQPRGMAVAISVKCEKISTLSAENKIISFKEMNPPDNIKDTKSDIIFFQRSVPGHDNKMQFESSSYEGYFLAAEKERDLFKLILKKEDELGDRSIMFTVQNED
B3: IL-18 polypeptide of SEQ ID NO: 34 (E06K, K53A, S55A) (ligand)
chain: YFGKLKSKLSVIRNLNDQVLFIDQGNRPLFEDMTDSDCRDNAPRTIFIISMYADAQPRGMAVTISVKCEKISTLSCENKIISFKEMNPPDNIKDTKSDIIFFQRSVPGHDNKMQFESSSYEGYFLACEKERDLFKLILKKEDELGDRSIMFTVQNED
B4: IL-18 polypeptide C167 (V11I, C38A, C76A, S105I, C127A) (ligand)
chain: B3 chain with K6E, V11I, C38A, A53K, A55S, C76A, S105I, C127A
B5: IL-18 polypeptide of SEQ ID NO: 60 (E6K, C38Q, K53A) (ligand)
chain: B3 chain with C38Q, A55S
B6: IL-18 polypeptide of SEQ ID NO: 54 (E06K, K53A, C38S, C68S, C76S, C127S, K70C) (ligand)
chain: B3 chain with C38S, A55S, C68S, K70C, C76S, C127S
B7: IL-18 polypeptide C147 (V11I, C38A, K53A, D54A, C76A, C127A) (ligand)
chain: B3 chain with K6E, V11I, C38A, D54A, A55S, C76A, C127A
B8: IL-18 polypeptide C145 (V11I, C38A, K53A, S55A, C76A, C127A) (ligand)
chain: B3 chain with K6E, V11I, C38A, C76A, C127A
B9: IL-18 polypeptide C178 (E6K, V11I, C38A, K53A, T63A, C76A, Q103R, C127A) (ligand)
chain: B3 chain with V11I, C38A, A55S, T63A, C76A, Q103R, C127A
B10: IL-18 polypeptide C182 (E6K, V11I, C38A, K53A, T63A, C76A, C127A, V153Y) (ligand)
chain: B3 chain with V11I, C38A, A55S, T63A, C76A, C127A, V153Y
B11: IL-18 polypeptide C157 (V11I, C38A, K53A, C76A, C127A, D132A) (ligand)
chain: B3 chain with K6E, V11I, C38A, A55S, C76A, C127A, D132A
B12: IL-18 polypeptide C149 (V11I, E31A, C38A, K53A, C76A, C127A) (ligand)
chain: B3 chain with K6E, V11I, E31A, C38A, A55S, C76A, C127A
B13: IL-18 polypeptide C181 (E6K, V11I, C38A, K53A, T63A, C76A, C127A, V153E) (ligand)
chain: B3 chain with V11I, C38A, A55S, T63A, C76A, C127A, V153E
B14: IL-18 polypeptide C177 (E6K, V11I, C38A, I49R, K53A, T63A, C76A, C127A) (ligand)
chain: B3 chain with V11I, C38A, I49R, A55S, T63A, C76A, C127A
B15: IL-18 polypeptide C143 (V11I, C38A, K53A, C76A, C127A) (ligand)
chain: B3 chain with K6E, V11I, C38A, A55S, C76A, C127A
B16: IL-18 polypeptide C166 (V11I, C38A, S55T, C76A, C127A) (ligand)
chain: B3 chain with K6E, V11I, C38A, A53K, A55T, C76A, C127A
B17: IL-18 polypeptide of SEQ ID NO: 57 (E6K, C38S, K53A) (ligand)
chain: B3 chain with C38S, A55S
B18: IL-18 polypeptide C144 (V11I, C38A, K53A, T63A, C76A, C127A) (ligand)
chain: B3 chain with K6E, V11I, C38A, A55S, T63A, C76A, C127A
B19: IL-18 polypeptide C183 (SEQ ID NO: 69; E6K, V11I, C38A, M51G, K53A, T63A, C76A, C127A) (ligand)
chain: B3 chain with V11I, C38A, M51G, A55S, T63A, C76A, C127A
B20: IL-18 polypeptide C160 (V11I, C38A, K53A, C76A, D110A, C127A) (ligand)
chain: B3 chain with K6E, V11I, C38A, A55S, C76A, D110A, C127A
B21: IL-18 polypeptide C184 (E6R, V11I, C38A, K53A, T63A, C76A, C127A) (ligand)
chain: B3 chain with K6R, V11I, C38A, A55S, T63A, C76A, C127A
B22: IL-18 polypeptide of SEQ ID NO: 42 (E06K, K53A, S55A, T63A) (ligand)
chain: B3 chain with T63A
B23: IL-18 polypeptide of SEQ ID NO: 50 (E06K, K53A, T63A) (ligand)
chain: B3 chain with A55S, T63A

molecular target: T1, IL-18R on HEK-Blue IL18R reporter cells …; assay: cell-based or functional assay

| EC50, HEK-Blue IL18R reporter assay | Binder |
| --- | --- |
| 2.5 pM | B1 |
| 1.68 pM | B2 |
| 272 pM | B3 |
| 5.37 pM | B4 |
| 0.203 pM | B5 |
| 9.12 pM | B6 |
| 1 pM | B7 |
| 3.63 pM | B8 |
| 0.26 pM | B9 |
| 0.08 pM | B10 |
| 1.95 pM | B11 |
| 6.6 pM | B12 |
| 0.1 pM | B13 |
| 0.04 pM | B14 |
| 0.98 pM | B15 |
| 4.73 pM | B16 |
| 0.86 pM and 0.53 pM | B17 |
| 0.17 pM | B18 |
| 0.1 pM | B19 |
| 2.02 pM | B20 |
| 0.04 pM | B21 |
| 0.79 pM | B22 |
| 1.77 pM | B23 |
